Data on 41 sequences can be found in the nanobody polyreactivity screen of Harvey et al. (2022).

The nature of the data set: yeast display, Sf9 membrane polyspecificity reagent, FACS + sequencing; frameworks hold sequencing errors. The procedure, abridged:
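Polyreactivity labels are assigned by the sorting gate from which each nanobody was recovered. The gates were low and high (top ~1%), set on anti-HA fluorescence for expression and streptavidin fluorescence for reagent binding. Before sorting, galactose-induced (36–48 hours) yeast display cells were stained for 1 hour at 4 °C with 10% biotinylated, detergent-solubilized Sf9 membrane reagent.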
Consider “QVQLVESGGGLVQAGGSLRLSCAASGFTFQYYAMGWYRQAPGKERELVAAISWSGASTYYADSVKGRFTISRDNAKNTVYLQMNSLKPEDTAVYYCAADYWGHEYDYWGQGTQVTVSS”, for which the “polyreactivity (PSR sort gate)” value is listed as “high polyreactivity”.

As for “QVQLVESGGGLVQAGGSLRLSCAASGRTFSVYAMGWYRQAPGKERELVARIRWSSGITYYADSVKGRFTISRDNAKNTVYLQMNSLKPEDTAVYYCAARYYTSATMDYWGQGTQVTVSS”, the “polyreactivity (PSR sort gate)” value is “high polyreactivity”.

As for “QVQLVESGGGLVQAGGSLRLSCAASGSIIGRYAMGWYRQAPAKERELVATITFRDTSTYYADSVKGRFTISRDNAKNTVYLQMNSLKTEDTAVYYCAAVRADLWDIARYDYWGQGTQVTVSS”, the “polyreactivity (PSR sort gate)” value was “low polyreactivity”.

Turning to “QVHLVVSGGGLVQAGGSLRLSCAAYGRTFRIYAMGWYRQAPGKDRELVARITKRAGSTYYADSVKGRFTISRDNAKNTVYLQMNRLKPEDTSVYYCAADVRVQYRQDLTYDYWGQGTQVTVSS”, the “polyreactivity (PSR sort gate)” value is given as “high polyreactivity”.

With “QVQLEETGGGLVQAGGSLRLSCAASGIILGKNAMGWYRQAPGKERELVASITSGAGITYYADSVKGRFTISRDNAKNTVYLQMNSLKPEDTAVYYCAADWSGDFFTDGYWGQGTQVTVSS”, the “polyreactivity (PSR sort gate)” value is “low polyreactivity”.

Regarding “QVQLVESGGGLVQAGGSLRLSCAASGSIFIRNAMGWYRQAPGKERELVAAITSRGGSRYYADSVKGRFTISRDNAKNTVYLQMNSLKPEDTSVYYCARRYYGLYDYWGQGTQVTVSS”, the “polyreactivity (PSR sort gate)” value was “low polyreactivity”.

Turning to “QVQLVESGGGLVQAGGSLRLSCAASGSISYFNAMGWYRQAPGKERELVAAIDVSGDSTYYADSVKGRCTISRDNAKISLYLQMNSLKPEDTAVYYCAKDPTSWYRTFGHSYYWYDYWGQGTQVTVSS”, the “polyreactivity (PSR sort gate)” value is “low polyreactivity”.

“QVQLVESGGGLVQAGGCLRLSCAASGSIFCVYVMGWYRQEPVKERELVAAITRGASTNYADSVKGRFTISRDNAKNTVYLQMNSLKPEDTAVYYCAARQVSVSGHQYGYWGQGTQVTVSS”: the “polyreactivity (PSR sort gate)” value is listed as “low polyreactivity”.

“QVQLVESGRGLVQAGGSLRLSCAASGSIFEQNVMGWYRQAPGKERELVAAITRGGSTNYADSVKGRFTISRDNAKNTVYLQMNSLKPEDTAVYYCSKRRWLGPSTLGYWGQGNQVTVSS”: the “polyreactivity (PSR sort gate)” value is “low polyreactivity”.

Take “QVQLVESGGGLVQAGGSLRLSCAASGRILKRKAMGLYRQAPGKERELVAAISWSTGTTYYADSVKGRLTISVDNAKNTVYLQMNSLKPEDTAVYYCAKKIVSGRRVDRNDYWGQGTQVTVSS”: the “polyreactivity (PSR sort gate)” value is listed as “low polyreactivity”.

Turning to “QVQLVESGGGLVQAGGSLRLSCAASGRTFSIYAMGWYRQAPVKERELVAAISNGGRTKYADSVKGRFTISRDNAKNTVSLQMNSLKPEDTAVYYCAKRTYSRKFRGAYNYWGQGTQVTVSS”, the “polyreactivity (PSR sort gate)” value is listed as “high polyreactivity”.

For “QVQLVESGGGLVQAGGSLRLSCAASGRTFLIYAMGWYRQAPGKETEFVAAIRGRGGSTYYADSVKGRFTISRDNAKNTVYFQMNCLKPVDTAVYYCAATFPGRSYRIRGYGYDYWGQGTQVTVSS”, the “polyreactivity (PSR sort gate)” value was “high polyreactivity”.

On to “QVQLVESGGGLVQAGGSLRLSCAASGLIFRHYAMGWYRQAPGKERELVAVISSGAGTYYADSVKGRFTISRDNAKNTVYLQMISMKPEDTAVYYSARDLYYRYRYFITGLYDSWGQGTQVTVSS”, for which the “polyreactivity (PSR sort gate)” value was “low polyreactivity”.

On to “QVQLVESGGGLVQAGGSLRLSCAASGRTFGTYAMGWYRQAPGKERELVAAINFSGGNTYYADSVKGLFTITRDNAKNTVYLQMNSLKPEDTAVYYCAKRGHSYSLDLYYIVTYDYWGQGTQVTVSS”, for which the “polyreactivity (PSR sort gate)” value is recorded as “low polyreactivity”.

In the case of “QVQLVESGGGLVQAGGSLRLSCAASGSTFYAYDMGWYRQAPGKEREWVAAISRSGGNTYYADSVKGRFTISRDYAKNTVYLQMNSQKPEDTAVYYCNARSSVYGHRKGSARIPRYDYWGQGTQVTVSS”, the “polyreactivity (PSR sort gate)” value is on record as “high polyreactivity”.

For the sequence “QVQLVDSGGGSVQAGGSLRLSCAASGSTFYENAMGWYREAPGKETELVAASTWSGGRTYYADSVKGRFTISRDNAKNTVYLQMYSLKPEDTAVYYCNARARSRKFYYWGQGTQVTVSS”, the “polyreactivity (PSR sort gate)” value is “high polyreactivity”.

As for “QVQLVESGGGLVQAGGSLRLSCAASGSTFRLNARGWYRQAPGKERELVASIRWSVGITYYADSVKGRFTISRDNAKNTVYLQMNSLKPEDTAVYYCATRDTTWRYYYWGQGTQVTVSS”, the “polyreactivity (PSR sort gate)” value is on record as “high polyreactivity”.

On to “QVQLVESGGGLVQAGGSIRLSCAASGSIYKSNTMGRYRQAPGKEREFVAAISWGGGSTYYADSVKGRFTISRDNAKHTVYLQMNSLKPEDTAVYYCATRPGTRPAYDYWGQGTQVTVSS”, for which the “polyreactivity (PSR sort gate)” value is given as “high polyreactivity”.

Regarding “QVQLVESGGGLVQAGGSLRLSCAASGFTFQNYAMGWYRQAPGKERELVAAISWGGGSTYYADSVKGRFTISRDNAQNTVYLQMNSLKPEDTAVYYCNAYEYLSAGYDYWGQGTQVTVSS”, the “polyreactivity (PSR sort gate)” value is given as “low polyreactivity”.

“QVQLVESGGGLVQAGGSLRLSCAASGSIFLTYDMGWYRQAPGKERELVAAITGSGDSTYYADSVKGRFTISRDNAKNTVYLQMNSLKPEDNAVYYCNADGPSTPWVDYGYWGQGTQVTVSS”: the “polyreactivity (PSR sort gate)” value is “low polyreactivity”.

With “QVQLVESGGGLVQAGGSLRLSCAASGRIFGRNAMGWYRQAPGNERELVAAINFGGTSTYYADSVKGRFTISRDNAKNTVYLQMNSLKPEDTAVYYCAARSRQDNFYRSYNSWGQGTQVTVSS”, the “polyreactivity (PSR sort gate)” value is reported as “high polyreactivity”.

Turning to “QVQLVESGGGLVQAGGSLRLSCAASGSTFHRYTMGWYRQAPGKEWELVAAISWSGGSTYYADSVKGRFTISRDNAKNTVYLQMNSLKPEDTAVYYCAAVKPAEALDYWGQGTQVTVSS”, the “polyreactivity (PSR sort gate)” value is given as “high polyreactivity”.

On to “QVQLVESGGGLVQAGGSLRLSCAASGSTFPANAMGWYRQAPGKERELVATISWSGGRTYYADSVKGRFTISRDNAKNTVYLQMNSLKPEDTAVYYCAKGYYWLSTYGDSRYGYWGQGTQVTVSS”, for which the “polyreactivity (PSR sort gate)” value was “high polyreactivity”.

Regarding “QDLLVESGGGLLQAGGSLRLICAASGYTFTYYAMGWYRQAPGKERELVAAINYSGGRTDYADSVKGRFTLSRDNAKNTVYLQKNSMNPEDTAVYYCAAYTRNGDFDYWGQGTQVTVSS”, the “polyreactivity (PSR sort gate)” value is listed as “high polyreactivity”.

As to “QVQLVESGGGLVQAGGSLRLSCAASGSTIEPYAMGWYRQAPGKERELLAAITLSAGSTYYADSVKGRFTISRDYAKNTVYLQMNSLNPEDTAVYYCNADYGYNNQLLWGYYGWSSDHWGQGTQVTVSS”, the “polyreactivity (PSR sort gate)” value is listed as “low polyreactivity”.

Turning to “QVQHVESGGGLVQAGCSLRLSCAASGSIFVIYAMGWYRQAPGKERELVAAIRSTGSSNYADSVKGRFTISRDNAKNTVYLQMNSLKPEDTAVYYCAAYRRRTYAVNIEGGYWGQGTQVTVSS”, the “polyreactivity (PSR sort gate)” value was “high polyreactivity”.

With “QVQLVESGGGLVQAGGSLRLSCAASGRTFGPYAMGWYRQAPGKERELVAVISGRGTSTYYADSVKGRFTISRDNAKNTVYLQMNSMKPEDTAVYYCNADYGSWYWGFDYWGQGTQVTVSS”, the “polyreactivity (PSR sort gate)” value was “low polyreactivity”.

“QVQLVESGGGLVQAGGSLRLSCAASGSTFSRNAMGWYRQAPGKERELVAAISWRGGRTYYADSVKGRFTISRDNAKNTVYLQMNRLKPEDTAVYYCAAEHKYRYDYWGQGTQVTVSS”: the “polyreactivity (PSR sort gate)” value is “low polyreactivity”.

Regarding “QVQLVESGGGLVQAGGSLRLSCAASGRTFRSYAMGWYRQAPGKEREFVAAISRSGASTRYADSVKGRFTISRDNAKNTVYLQMNSLKPEDTAVYYCAAVWPDVRGYDYWGQGTQVTVSS”, the “polyreactivity (PSR sort gate)” value is “high polyreactivity”.

Turning to “QVQLVESGGGLVQAGGSLRLSCAASGYTFQKYGMGWYRQAPGNERELVAAITRSSGNTYYADSVKGRFTISRDNAKNTVYLQMNSLKPEDTAVDYCAAYYWGGVKYNYWGQGTQVTVSS”, the “polyreactivity (PSR sort gate)” value is recorded as “high polyreactivity”.

“QVQLVESGGGLVQAGGSLRLSCAASGFTFRSNMGWYRQAPGKEREFVAAITKSGGSTYYADSVKGRFTISRDNAKNTVYLQMNSLKPEDTAVYYCATKVDTYVFRYYYWGQGTQVTVSS”: the “polyreactivity (PSR sort gate)” value is “high polyreactivity”.

On to “QVQLVESGGGLVQAGGSLRLSCAASGFIFGDYAMGWYRQAPGKERELVAAISRSGGRTYYADSVKGRFTISRDNAKNTVYLQMNSLKPEDTAVYYCAKSSLNIYDYWGQGTQVTVSS”, for which the “polyreactivity (PSR sort gate)” value is listed as “high polyreactivity”.

Turning to “QVQLVESGGGLVQAGGSLRLSCAASGGTFLFYGMGWYRQAPGKERELVAVITWSGGSTYYADSVKGRFTISRDNAKNTVYLQMNSLKPEDTAVYYCNAANTGSPDYQSIGYNFNYWGQGTQVTVSS”, the “polyreactivity (PSR sort gate)” value was “low polyreactivity”.

In the case of “QVQLVESGGGLVQAGGSLRISCAPSGITFKDYAMGWYRQAPGKERELVAVISYSGGSTYYADTVKGRFTISRDNAKNTVYLQMNSLKPEDTAVYYCAARVGPEYDWGQGTQVTVSS”, the “polyreactivity (PSR sort gate)” value is reported as “low polyreactivity”.

Consider “QVQLVESGGCLVQAGGSIRLSCAASGSILGFNAMGWSRQAPGKERELVAAISTSGSSTYYADSVKGRFTISRDNATISVYLLMNSLIPEDTAVYYCAKRRGGSRPYYYWGQRTQVTVSS”, for which the “polyreactivity (PSR sort gate)” value was “high polyreactivity”.

Take “HVQLVESGAGLVQAGGSLRLSCAASGSIFGFYAMGWYRQAPGKERELVAAISSSGDSTYADSVKGRFTISRDNAKNTVYLQMNSLKPEDTAVYYCAADEDSRNWGQGTQVTVSS”: the “polyreactivity (PSR sort gate)” value is recorded as “high polyreactivity”.

For the sequence “QVQLVESGGGLVQAGGSLRLSCAASGNTFYKNTMGWYRQAPWKERELVAAISQRGTRTYYADSVKGRFTISRDNAKNTVYLQMNSLKPEDTAVYYCATDLSQVGFDYWGQGTQVTVSS”, the “polyreactivity (PSR sort gate)” value is given as “high polyreactivity”.

As to “QVQLVESGGGLVQAGGSLRLSCAASGSTFGVNAMGWYRQAPGKERELVAAISSSGSSTYADSVKGRFTISRDNAKNTVYLQMNSLKPEDTAVYYCNKTTLLTVEYDYWGQGTQVTVSS”, the “polyreactivity (PSR sort gate)” value is “low polyreactivity”.

Take “QVQLVESGGGLVQAGGSLRLSCAASGSIFGTYAMGWYRQAPGKERELVAAITSSGGSTYYADSVKGRFTISRDNAKNTVYLQMNSLKPEDTAVYYCAAYRRIRVGVPVRTYYYWGQGTQVTVSS”: the “polyreactivity (PSR sort gate)” value was “high polyreactivity”.

In the case of “QVQLVESGGGLVQAGGSLRLSCAASGSTFPLNAMGWYRQAPGKERELVASINFGGGTTYYADSVKGRFTISRDNAKNTVYLQMNSLKPEDTAVYYCAADVYRGTYRRDYWGQGTQVTVSS”, the “polyreactivity (PSR sort gate)” value is “high polyreactivity”.

With “QVQLVESGGGLVQAGGSLRLICAASGITFVYYAMGWYRQAPGKERELVAAISKNSGSTYYADSVKGRFTISRDNAKNTVYLQKNSLNPEDTAVYYCAAEEGYPWVRYNYWGQGTQVTVSS”, the “polyreactivity (PSR sort gate)” value was “high polyreactivity”.
